Assay results from patent publication US20190322750A1 (Y BIOLOGICS, published 2019).

Columns and labels:
M1 = assay: ELISA on coated antigen, column M1
Description: (§1) An antigen PD-L1 wild type (WT) or several mutants were coated at a density of 100 ng/well on a 96-well immunoplate at 4° C. for 16 hours and the wells were blocked with 4% skim milk dissolved in PBS. Each well was washed with 0.2 ml of PBS/T, and then a single clone scFv-phage (each […]) cultured for 16 hours was added in a dose of 100 μl to each well and reacted at room temperature for 2 hours. Again, each well was washed 4 times with 0.2 ml of PBS/T, and then the second antibody, anti-Fab, was diluted to 1/2000 and reacted at room temperature for 1 hour. After washing with 0.2 ml of PBS/T, color development was performed and absorbance was measured at 490 nm.

M6 = assay: ELISA on coated antigen, column M6
Description: as §1

M7 = assay: ELISA on coated antigen, column M7
M8 = assay: ELISA on coated antigen, column M8
Description: as §1

WT = molecular target: T1, WT (human, UniProt Q9NZQ7); assay: ELISA on coated antigen, column WT
T1 construct: recombinant; also called hPD-L1; antigen PD-L1 wild type (WT)
Description: as §1

M2 = assay: ELISA on coated antigen, column M2
Description: as §1

PD-L1-hFc [1] = molecular target: T2, PD-L1-hFc (human, UniProt Q9NZQ7 19-238); assay: kinetics on PD-L1-hFc (legend paragraph 40; text names ProteOn XPR36, the sheet's sensorgrams have a nm axis)
T2 construct: extracellular domain; Made in HEK-293F cells, protein A purified; also called PD-L1 antigen; PD-L1 protein

ITGA6 = molecular target: T3, ITGA6; assay: ELISA on coated antigen, column ITGA6
T3 construct: unrelated antigen column; all antibodies give 0.5 to 0.6
T3 sequence (P23229 whole entry, species assumed, looked up): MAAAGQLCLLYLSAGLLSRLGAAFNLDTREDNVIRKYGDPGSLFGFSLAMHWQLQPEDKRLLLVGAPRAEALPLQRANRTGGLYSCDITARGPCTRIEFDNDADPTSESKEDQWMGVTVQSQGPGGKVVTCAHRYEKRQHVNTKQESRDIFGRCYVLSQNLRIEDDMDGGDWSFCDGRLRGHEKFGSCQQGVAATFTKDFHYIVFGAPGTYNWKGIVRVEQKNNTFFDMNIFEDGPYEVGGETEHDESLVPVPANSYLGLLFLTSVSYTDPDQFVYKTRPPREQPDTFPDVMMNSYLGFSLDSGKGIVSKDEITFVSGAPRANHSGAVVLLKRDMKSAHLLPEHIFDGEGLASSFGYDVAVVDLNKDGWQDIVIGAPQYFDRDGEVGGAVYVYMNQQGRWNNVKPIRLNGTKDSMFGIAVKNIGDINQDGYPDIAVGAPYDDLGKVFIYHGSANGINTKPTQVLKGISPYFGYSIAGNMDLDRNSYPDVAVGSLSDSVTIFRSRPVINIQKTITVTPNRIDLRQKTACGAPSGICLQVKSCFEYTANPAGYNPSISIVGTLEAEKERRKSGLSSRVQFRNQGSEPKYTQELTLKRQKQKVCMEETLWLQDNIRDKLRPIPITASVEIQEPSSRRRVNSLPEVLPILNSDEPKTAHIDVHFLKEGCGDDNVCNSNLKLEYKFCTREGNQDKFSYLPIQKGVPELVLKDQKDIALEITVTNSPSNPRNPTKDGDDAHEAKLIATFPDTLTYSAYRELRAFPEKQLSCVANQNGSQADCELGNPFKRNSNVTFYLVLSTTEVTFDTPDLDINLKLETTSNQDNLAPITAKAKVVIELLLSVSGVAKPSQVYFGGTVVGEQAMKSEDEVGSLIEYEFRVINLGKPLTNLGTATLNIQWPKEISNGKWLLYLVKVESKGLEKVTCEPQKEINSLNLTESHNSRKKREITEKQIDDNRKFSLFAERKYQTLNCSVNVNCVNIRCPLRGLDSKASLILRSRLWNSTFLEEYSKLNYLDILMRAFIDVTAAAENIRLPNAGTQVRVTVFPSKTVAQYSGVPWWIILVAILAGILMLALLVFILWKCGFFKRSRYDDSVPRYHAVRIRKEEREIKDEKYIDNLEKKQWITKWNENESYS

[2] = molecular target: PD-L1 on CHO cell line highly expressing PD-L1 (PD-1/PD-L1 blockade bioassay kit, promega J1250) (UniProt Q9NZQ7 19-290, limits assumed); assay: cell-based or functional assay
M5 = assay: ELISA on coated antigen, column M5
Description: as §1

M3 = assay: ELISA on coated antigen, column M3
M4 = assay: ELISA on coated antigen, column M4
Description: as §1

PD-L1-hFc [3] = molecular target: T2, PD-L1-hFc; assay: SPR (ProteOn XPR36), PD-L1-hFc immobilised on GLC chip, antibody 30 nM to 0.123 nM as analyte
Description: A ProteOn XPR36 (BioRad) instrument was used. The GLC sensor chip (BioRad) was mounted on the instrument and washed with PBST buffer, and the carboxymethyldextran surface was activated with an EDC/sulfo-NHS mixed solution. PD-L1-hFc dissolved at a concentration of 5 ug/ml in a 10 mM sodium acetate buffer solution (pH 5.0) was injected and immobilized on the GLC sensor chip.
In order to deactivate the activated carboxyl groups that remain unreacted with the PD-L1 protein, 1 M ethanolamine was flowed and 10 mM glycine (pH 2.0) was injected in order to wash proteins that remain unbound to the sensor chip.
The equilibrium dissociation constant (KD) was calculated by plotting and fitting the sensogram data in the equilibrium state depending on concentration.

[4] = molecular target: T4, human PD-L1 over-expressed on HEK293E cells (human, UniProt Q9NZQ7 19-290); assay: flow cytometry (Geometric Mean) on HEK293E cells over-expressing human PD-L1, serial dilution
T4 construct: whole, on cells; also called human PD-L1 (NM_014143.2)
Description: Then, the cells were washed three times with PBS (#LB001-02, Welgene) containing 2% fetal bovine serum and reacted at 4° C. for 20 minutes with an anti-human IgG antibody (#FI-3000, Vectorlabs) conjugated with a FITC (fluorescein isothiocyanate) fluorescent substance. Then, the cells were subjected to the same washing process as above and then suspended in 0.5 ml of PBS containing 2% FBS (#26140-079, Thermo Fisher) with an FACSCanto II flow cytometer (BD Biosciences, USA) as a flow cytometer.

T2 sequence (Q9NZQ7 other isoform, or with tags, fused parts or gaps limits assumed): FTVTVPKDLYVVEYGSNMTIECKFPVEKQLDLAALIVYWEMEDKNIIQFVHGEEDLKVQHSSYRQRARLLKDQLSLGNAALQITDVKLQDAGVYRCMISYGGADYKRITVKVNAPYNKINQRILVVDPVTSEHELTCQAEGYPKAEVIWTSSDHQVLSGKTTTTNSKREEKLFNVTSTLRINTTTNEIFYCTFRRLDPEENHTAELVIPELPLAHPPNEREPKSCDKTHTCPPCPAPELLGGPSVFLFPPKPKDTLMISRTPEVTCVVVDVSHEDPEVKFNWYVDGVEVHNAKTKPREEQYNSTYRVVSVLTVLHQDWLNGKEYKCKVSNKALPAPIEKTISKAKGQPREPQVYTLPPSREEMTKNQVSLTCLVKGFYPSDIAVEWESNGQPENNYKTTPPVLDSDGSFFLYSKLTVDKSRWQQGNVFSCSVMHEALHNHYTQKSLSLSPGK
T4 sequence (Q9NZQ7 19-290): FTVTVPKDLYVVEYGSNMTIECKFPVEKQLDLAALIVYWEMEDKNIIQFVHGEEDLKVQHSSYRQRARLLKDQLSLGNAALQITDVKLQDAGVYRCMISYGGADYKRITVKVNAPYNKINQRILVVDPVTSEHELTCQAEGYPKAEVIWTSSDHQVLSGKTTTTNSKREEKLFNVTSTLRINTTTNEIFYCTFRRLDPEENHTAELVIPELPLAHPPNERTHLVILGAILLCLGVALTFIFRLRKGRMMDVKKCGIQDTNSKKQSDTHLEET
PD-L1 on CHO cell line highly expressing PD-L1 (PD-1/PD-L1 blockade bioassay kit, promega J1250), sequence (Q9NZQ7 19-290 limits assumed): as the sequence (Q9NZQ7 19-290) above
T1 sequence (Q9NZQ7 19-238 limits assumed): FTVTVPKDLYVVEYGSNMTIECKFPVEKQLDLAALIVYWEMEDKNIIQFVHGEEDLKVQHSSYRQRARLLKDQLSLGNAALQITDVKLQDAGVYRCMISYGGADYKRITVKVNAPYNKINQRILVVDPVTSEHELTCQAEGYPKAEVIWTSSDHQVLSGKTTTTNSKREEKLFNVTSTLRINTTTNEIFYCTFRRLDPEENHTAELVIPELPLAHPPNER

absorbance at 490 nm (M1): 2.4
absorbance at 490 nm (M6): 2.5
absorbance at 490 nm (M7): 2.5
absorbance at 490 nm (M8): 2.6
absorbance at 490 nm (WT): 2.5
absorbance at 490 nm (M2): 2.3
Kd (PD-L1-hFc [1]): 0.043 nM
koff (PD-L1-hFc [1]): 1.43e-05 s⁻¹
kon (PD-L1-hFc [1]): 334000 M⁻¹ s⁻¹
absorbance at 490 nm (ITGA6): 0.5
EC50 [2]: 0.909 nM
absorbance at 490 nm (M5): 2.4
absorbance at 490 nm (M3): 0.9
absorbance at 490 nm (M4): 0.4
Kd (PD-L1-hFc [3]): 0.045 nM
EC50 [4]: 1.72 nM
B1: PDL1-16E12 (antibody, V domains shown)
VH: QMQLVQSGAEVKKPGSSVKVSCKASGGTFSSYAISWVRQAPGQGLEWMGRIIPILGIANYAQKFQGRVTITADKSTSTAYMELSSLRSEDTAVYYCAKPRDGYNLVAFDIWGQGTMVTVSS
VL: QLVLTQPPSVSGAPGQTVTISCTGSSSNIGAGYDVHWYQQLPGTAPKLLIYGNNNRPSGVPDRFSGSKSGALASLAITGLQAEDGADYHCQSYDNSLSAHAVFGTGTKVTVL
notes: Only FR/CDR pieces are tied to the clone; also called parent antibody
